According to patent US20140072613A1 (published 2014):

Assays:
Assay in all cases: cell-based or functional assay
eEF-2K(h) = target: T1, eEF-2K(h) (human, UniProt O00418 1-725, limits assumed)
T1 sequence (looked up): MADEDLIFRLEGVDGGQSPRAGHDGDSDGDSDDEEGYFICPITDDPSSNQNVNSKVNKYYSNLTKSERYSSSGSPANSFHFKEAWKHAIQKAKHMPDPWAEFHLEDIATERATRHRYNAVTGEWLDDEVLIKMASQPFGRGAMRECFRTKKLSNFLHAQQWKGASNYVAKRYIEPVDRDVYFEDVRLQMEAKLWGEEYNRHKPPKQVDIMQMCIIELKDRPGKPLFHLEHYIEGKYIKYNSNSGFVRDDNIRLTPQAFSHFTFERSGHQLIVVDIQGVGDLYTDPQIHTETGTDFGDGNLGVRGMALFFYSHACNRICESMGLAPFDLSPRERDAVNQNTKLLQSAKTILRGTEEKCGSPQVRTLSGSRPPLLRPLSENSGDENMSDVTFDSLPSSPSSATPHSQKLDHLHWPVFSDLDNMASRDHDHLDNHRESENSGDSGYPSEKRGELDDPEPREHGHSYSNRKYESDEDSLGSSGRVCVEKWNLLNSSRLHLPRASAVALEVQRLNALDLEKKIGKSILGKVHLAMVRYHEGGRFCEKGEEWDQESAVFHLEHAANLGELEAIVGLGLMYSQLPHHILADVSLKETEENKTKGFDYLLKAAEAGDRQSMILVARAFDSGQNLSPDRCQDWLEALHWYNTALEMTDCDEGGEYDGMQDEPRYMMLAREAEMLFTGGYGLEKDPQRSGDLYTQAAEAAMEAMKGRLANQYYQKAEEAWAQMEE

PASK(h) = PASK(h) (human, UniProt Q96RG2 879-1323, limits assumed)
Chain of PASK(h) (Q96RG2 879-1323 limits assumed): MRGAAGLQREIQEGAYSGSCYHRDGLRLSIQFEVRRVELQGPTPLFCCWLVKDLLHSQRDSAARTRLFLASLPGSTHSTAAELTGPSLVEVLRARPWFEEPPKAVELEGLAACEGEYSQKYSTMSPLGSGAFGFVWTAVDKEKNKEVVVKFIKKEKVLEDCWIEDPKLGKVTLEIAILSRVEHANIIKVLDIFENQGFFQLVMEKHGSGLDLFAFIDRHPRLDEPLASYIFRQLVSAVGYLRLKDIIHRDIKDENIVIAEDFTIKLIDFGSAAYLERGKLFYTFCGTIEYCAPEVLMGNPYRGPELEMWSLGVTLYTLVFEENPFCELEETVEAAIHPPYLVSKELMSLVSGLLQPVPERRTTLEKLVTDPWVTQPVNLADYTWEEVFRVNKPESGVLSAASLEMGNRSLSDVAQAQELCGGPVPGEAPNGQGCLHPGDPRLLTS

Hck(h) activated = Hck(h) activated (human, UniProt P08631 251-518, limits assumed)
Chain of Hck(h) activated (P08631 251-518 limits assumed): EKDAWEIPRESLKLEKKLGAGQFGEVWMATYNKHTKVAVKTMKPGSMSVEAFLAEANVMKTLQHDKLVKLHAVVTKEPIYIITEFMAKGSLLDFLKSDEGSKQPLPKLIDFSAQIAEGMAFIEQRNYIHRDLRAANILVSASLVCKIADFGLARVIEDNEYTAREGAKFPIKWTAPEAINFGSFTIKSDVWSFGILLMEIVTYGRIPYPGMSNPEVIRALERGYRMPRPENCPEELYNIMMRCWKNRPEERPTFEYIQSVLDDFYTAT

Met(h) = Met(h) (human, UniProt P08581 956-1390, limits assumed)
Chain of Met(h) (P08581 956-1390 limits assumed): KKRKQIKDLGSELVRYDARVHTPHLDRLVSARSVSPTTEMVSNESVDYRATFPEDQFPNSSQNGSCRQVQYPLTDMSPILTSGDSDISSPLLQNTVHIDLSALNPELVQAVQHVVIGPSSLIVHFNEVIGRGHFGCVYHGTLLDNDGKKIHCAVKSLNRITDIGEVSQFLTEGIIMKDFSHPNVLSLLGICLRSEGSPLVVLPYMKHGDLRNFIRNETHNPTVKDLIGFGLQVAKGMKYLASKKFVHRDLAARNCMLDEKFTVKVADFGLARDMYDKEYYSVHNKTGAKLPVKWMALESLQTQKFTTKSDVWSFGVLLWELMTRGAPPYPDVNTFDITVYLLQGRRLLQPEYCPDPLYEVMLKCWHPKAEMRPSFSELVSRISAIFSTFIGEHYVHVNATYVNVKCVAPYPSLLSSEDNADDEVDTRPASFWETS

IRR(h) = IRR(h) (human, UniProt P14616 960-1297, limits assumed)
Chain of IRR(h) (P14616 960-1297 limits assumed): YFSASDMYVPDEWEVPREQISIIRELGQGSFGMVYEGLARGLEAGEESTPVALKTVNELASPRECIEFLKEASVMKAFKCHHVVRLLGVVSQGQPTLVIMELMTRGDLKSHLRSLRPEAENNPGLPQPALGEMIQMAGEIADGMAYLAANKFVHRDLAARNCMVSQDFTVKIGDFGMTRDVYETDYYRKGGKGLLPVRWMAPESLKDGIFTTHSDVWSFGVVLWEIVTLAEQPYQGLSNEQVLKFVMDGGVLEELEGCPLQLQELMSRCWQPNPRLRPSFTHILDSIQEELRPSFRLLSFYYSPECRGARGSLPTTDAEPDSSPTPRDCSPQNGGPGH

TSSK1(h) = target: T2, TSSK1(h) (human, UniProt Q9BXA7 1-367)
T2 sequence (looked up): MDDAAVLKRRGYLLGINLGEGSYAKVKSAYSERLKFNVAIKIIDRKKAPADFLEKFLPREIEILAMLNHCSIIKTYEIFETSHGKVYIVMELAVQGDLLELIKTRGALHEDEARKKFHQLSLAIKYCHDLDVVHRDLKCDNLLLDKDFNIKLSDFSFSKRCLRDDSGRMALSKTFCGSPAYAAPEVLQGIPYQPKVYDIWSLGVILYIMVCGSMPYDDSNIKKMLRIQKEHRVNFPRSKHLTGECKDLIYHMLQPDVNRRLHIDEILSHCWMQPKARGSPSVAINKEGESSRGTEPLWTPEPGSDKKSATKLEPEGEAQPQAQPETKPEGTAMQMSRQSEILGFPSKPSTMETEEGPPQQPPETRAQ

SGK3(h) = target: T3, SGK3(h) (human, UniProt Q96BR1 1-496, limits assumed)
T3 sequence (looked up): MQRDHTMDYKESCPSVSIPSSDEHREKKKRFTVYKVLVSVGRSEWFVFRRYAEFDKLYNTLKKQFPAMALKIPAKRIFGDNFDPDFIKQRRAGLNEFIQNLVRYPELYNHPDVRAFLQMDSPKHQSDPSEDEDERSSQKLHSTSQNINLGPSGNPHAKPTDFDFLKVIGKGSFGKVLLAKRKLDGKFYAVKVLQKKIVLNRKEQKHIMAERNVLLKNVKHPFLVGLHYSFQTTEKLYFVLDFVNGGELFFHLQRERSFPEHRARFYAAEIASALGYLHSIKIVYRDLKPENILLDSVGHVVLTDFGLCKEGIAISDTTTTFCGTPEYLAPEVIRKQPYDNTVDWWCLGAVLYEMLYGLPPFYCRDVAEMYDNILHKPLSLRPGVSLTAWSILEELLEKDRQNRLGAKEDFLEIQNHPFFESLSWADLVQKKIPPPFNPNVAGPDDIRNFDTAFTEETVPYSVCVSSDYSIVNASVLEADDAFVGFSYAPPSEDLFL

STK33(h) = STK33(h) (human, UniProt Q9BYT3 1-514, limits assumed)
Chain of STK33(h) (Q9BYT3 whole entry): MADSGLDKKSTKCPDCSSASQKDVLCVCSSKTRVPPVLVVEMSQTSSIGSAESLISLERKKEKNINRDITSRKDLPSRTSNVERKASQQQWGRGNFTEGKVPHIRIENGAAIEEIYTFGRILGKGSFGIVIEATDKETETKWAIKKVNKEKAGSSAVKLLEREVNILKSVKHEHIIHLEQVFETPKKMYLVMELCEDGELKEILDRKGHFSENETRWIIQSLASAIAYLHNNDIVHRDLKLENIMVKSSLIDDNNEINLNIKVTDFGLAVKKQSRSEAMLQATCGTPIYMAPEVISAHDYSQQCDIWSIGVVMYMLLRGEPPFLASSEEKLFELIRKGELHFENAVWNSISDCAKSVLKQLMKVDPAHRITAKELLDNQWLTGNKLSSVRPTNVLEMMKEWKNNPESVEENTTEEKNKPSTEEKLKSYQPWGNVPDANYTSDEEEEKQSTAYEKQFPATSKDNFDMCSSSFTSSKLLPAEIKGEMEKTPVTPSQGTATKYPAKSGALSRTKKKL

TAO2(h) = target: T4, TAO2(h) (human, UniProt Q9UL54 1-314, limits assumed)
T4 sequence (looked up): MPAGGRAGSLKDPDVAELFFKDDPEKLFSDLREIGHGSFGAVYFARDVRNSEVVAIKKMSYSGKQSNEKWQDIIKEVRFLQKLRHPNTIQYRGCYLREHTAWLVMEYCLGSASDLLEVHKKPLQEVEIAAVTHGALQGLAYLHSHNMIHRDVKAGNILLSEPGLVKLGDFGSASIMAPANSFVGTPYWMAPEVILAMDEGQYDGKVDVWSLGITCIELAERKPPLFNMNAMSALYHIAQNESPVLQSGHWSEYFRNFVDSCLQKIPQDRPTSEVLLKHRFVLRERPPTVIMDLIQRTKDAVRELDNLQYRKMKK

LKB1(h) = target: T5, LKB1(h) (human, UniProt Q15831 1-433)
T5 sequence (looked up): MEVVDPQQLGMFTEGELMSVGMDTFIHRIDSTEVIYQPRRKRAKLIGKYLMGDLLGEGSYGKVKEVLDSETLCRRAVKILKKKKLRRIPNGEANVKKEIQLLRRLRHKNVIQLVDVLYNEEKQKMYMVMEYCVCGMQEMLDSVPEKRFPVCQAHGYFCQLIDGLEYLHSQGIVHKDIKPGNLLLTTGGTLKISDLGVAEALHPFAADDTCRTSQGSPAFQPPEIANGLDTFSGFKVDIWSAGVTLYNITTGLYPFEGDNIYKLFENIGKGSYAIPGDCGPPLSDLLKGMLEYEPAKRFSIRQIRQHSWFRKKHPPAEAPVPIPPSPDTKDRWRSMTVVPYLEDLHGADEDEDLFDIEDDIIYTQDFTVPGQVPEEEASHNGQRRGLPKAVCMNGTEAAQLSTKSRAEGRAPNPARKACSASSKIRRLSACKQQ

6SK3β(h) = 6SK3β(h) (human, UniProt P49841 1-420)
Chain of 6SK3β(h) (P49841 whole entry): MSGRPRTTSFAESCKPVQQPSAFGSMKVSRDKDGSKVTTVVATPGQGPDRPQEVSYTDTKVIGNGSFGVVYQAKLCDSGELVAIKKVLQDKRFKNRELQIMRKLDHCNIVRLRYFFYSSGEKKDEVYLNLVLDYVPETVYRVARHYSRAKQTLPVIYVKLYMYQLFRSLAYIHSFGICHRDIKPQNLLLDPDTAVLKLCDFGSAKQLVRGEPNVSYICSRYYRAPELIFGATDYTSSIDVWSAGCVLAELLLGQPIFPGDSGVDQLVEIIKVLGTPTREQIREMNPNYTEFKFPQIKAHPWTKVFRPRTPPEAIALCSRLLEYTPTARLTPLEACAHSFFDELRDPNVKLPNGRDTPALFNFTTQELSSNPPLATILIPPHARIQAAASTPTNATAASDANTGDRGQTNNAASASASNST

Lck(h) activated = Lck(h) activated (human, UniProt P06239 1-509)
Chain of Lck(h) activated (P06239 whole entry): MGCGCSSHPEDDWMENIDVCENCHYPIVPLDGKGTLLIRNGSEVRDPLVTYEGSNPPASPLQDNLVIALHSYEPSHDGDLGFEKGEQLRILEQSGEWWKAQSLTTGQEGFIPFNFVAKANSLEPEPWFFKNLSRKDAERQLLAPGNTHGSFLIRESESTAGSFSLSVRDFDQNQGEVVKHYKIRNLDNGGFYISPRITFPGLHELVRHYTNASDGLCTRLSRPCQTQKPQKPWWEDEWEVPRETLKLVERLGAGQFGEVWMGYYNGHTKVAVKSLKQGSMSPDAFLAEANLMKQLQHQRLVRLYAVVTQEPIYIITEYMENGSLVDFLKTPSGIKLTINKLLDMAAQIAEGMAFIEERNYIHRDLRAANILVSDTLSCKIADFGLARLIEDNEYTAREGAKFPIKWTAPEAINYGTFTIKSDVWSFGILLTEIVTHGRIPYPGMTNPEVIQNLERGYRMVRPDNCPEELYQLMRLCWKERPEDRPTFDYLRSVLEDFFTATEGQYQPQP

Binder | % activity, 100 µM (eEF-2K(h)) [%] | % activity, 100 µM (PASK(h)) [%] | % activity, 100 µM (Hck(h) activated) [%] | % activity, 100 µM (Met(h)) [%] | % activity, 100 µM (IRR(h)) [%] | % activity, 100 µM (TSSK1(h)) [%] | % activity, 100 µM (SGK3(h)) [%] | % activity, 100 µM (STK33(h)) [%] | % activity, 100 µM (TAO2(h)) [%] | % activity, 100 µM (LKB1(h)) [%] | % activity, 100 µM (6SK3β(h)) [%] | % activity, 100 µM (Lck(h) activated) [%]
FAKLAARLYRKALARQLGVAA [MMI-0300] | 91 | 29 | 82 | 65 | 8 | 79 | 10 | 45 | 70 | 101 | 205 | 243
KAFAKLAARLYRKALARQLGVAA [MMI-0400] | 43 | 28 | 81 | 62 | 8 | 79 | 8 | 52 | 74 | 89 | 202 | 216
